Test results from patent US8815237.

What was measured:
Experiment in all cases: SPR (Biacore T100), steady state; antibody immobilized, soluble receptor injected
[1] = target: soluble human FcγRIa (R&D Systems) (human) (UniProt P12314)
[2] = target: soluble human FcγRIIA^131H (human) (UniProt P12318)
[3] = target: soluble human FcγRIIA^131R (human) (UniProt P12318)

Chain of UniProt P12314 (P12314 16-288 limits assumed): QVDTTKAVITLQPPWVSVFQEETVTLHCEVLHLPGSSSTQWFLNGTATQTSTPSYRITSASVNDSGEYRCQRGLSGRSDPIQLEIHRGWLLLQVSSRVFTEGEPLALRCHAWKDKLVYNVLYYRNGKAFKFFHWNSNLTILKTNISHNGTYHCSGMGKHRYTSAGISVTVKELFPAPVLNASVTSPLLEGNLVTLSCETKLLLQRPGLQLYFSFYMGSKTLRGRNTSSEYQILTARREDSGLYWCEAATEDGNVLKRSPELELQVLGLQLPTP

## 4m5.3 hIgG1 S298G/T299A (antibody)
[1]
  fold weakening of binding against wild type: 10 fold
[2]
  Kd: 7 µM
[3]
  Kd: 1.7 µM
  fold stronger binding than wild-type Fc: 3 fold
